Experimental data from patent publication US20160017055A1.

Biological target: wild type plasma kallikrein recombinant catalytic domain (Pichia pastoris) (human) (UniProt P03952)
Test: enzyme inhibition assay: rate (F/s) of cleavage of a substrate peptide by PKal against [IgG] (nM), fitted to the Morrison equation (apparent Ki); panel 'X115-F02 vs WT'

- Ki: 90 pM
B1: X115-F02 (antibody, human IgG1, kappa, V domains shown)
VH: EVQLLESGGGLVQPGGSLRLSCAASGFTFSHYIMMWVRQAPGKGLEWVSGIYSSGGITVYADSVKGRFTISRDNSKNTLYLQMNSLRAEDTAVYYCAYRRIGVPRRDEFDIWGQGTMVTVSS
VL: DIQMTQSPSTLSASVGDRVTITCRASQSISSWLAWYQQKPGKAPKLLIYKASTLESGVPSRFSGSGSGTEFTLTISSLQPDDFATYYCQQYNTYWTFGQGTKVEIKR
